Experimental findings from patent publication US20210309710A1 (DAEWOONG PHARMACEUTICAL, published 2021) are described below.

This experiment has as its target Recombinant human serum albumin (human, UniProt P02768 25-609). As to the kind of experiment: SPR (BIACORE 3000), recombinant HSA immobilized on CM5 chip. How it is done: To measure the binding affinities of the ABD-fused insulin analogue proteins for albumin, a surface plasmon resonance (SPR, BIACORE 3000, GE healthcare) analysis method was used. Recombinant human serum albumin was immobilized on a CM5 chip by an amine coupling method, and the ABD or ABD-fused insulin analogues diluted to five or more concentrations were bound thereto, and the affinities thereof for the human serum albumin were measured.
A general note: SPR reads the build-up and loss of mass on a sensor chip optically.

Sequence of Recombinant human serum albumin (P02768 25-609 limits assumed): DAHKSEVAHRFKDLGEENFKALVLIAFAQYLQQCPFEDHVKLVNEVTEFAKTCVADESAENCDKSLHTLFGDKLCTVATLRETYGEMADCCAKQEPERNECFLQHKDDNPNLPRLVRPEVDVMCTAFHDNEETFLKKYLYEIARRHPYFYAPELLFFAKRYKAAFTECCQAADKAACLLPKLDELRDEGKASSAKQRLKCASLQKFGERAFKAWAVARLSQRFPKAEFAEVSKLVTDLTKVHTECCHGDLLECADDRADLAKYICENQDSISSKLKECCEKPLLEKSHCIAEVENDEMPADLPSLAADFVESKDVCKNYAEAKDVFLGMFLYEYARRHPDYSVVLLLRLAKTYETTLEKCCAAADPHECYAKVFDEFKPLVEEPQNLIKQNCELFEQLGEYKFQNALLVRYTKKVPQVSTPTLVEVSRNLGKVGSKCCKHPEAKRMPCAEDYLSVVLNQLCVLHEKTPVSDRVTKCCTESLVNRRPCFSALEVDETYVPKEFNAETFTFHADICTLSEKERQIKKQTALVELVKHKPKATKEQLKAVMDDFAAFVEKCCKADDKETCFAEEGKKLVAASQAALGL

The term Kd denotes the free concentration of one partner at which half of the binding sites on the other are occupied at equilibrium, for simple one-to-one binding. Usually koff stands for a measure of how fast the partners let go of each other. A word on the kon: it is a measure of how fast the partners come together. On to LAEAKEAANAELDSYGVSDFYKKLIDKAKTVEGVEALKDAILAALP (designed binder) [albumin-binding domain (ABD)], for which the Kd was found to be 7.29 pM, the koff stood at 2.41e-05 s⁻¹ and the kon was determined as 5.93e+06 M⁻¹ s⁻¹.
